Source: PMC13056932 (Nature Communications, 2026)

Key:
[1] = target: large tegument protein VP1/2 (ORF22) (Varicella-zoster virus (parental Oka strain)) (UniProt P09278); test: cryo-EM structure
[2] = target: the molecule itself; test: cryo-EM structure

Molecule	stoichiometry N [1]	stoichiometry N [2]
large tegument protein VP1/2 (ORF22), P09278 1-2763	2	
capsid triplex protein 2 (TRX2; ORF41) (natural protein, UniProt P09291 1-316, looked up) MAMPFEIEVLLPGELSPAETSALQKCEGKIITFSTLRHRASLVDIALSSYYINGAPPDTLSLLEAYRMRFAAVITRVIPGKLLAHAIGVGTPTPGLFIQNTSPVDLCNGDYICLLPPVFGSADSIRLDSVGLEIVFPLTIPQTLMREIIAKVVARAVERTAAGAQILPHEVLRGADVICYNGRRYELETNLQHRDGSDAAIRTLVLNLMFSINEGCLLLLALIPTLLVQGAHDGYVNLLIQTANCVRETGQLINIPPMPRIQDGHRRFPIYETISSWISTSSRLGDTLGTRAILRVCVFDGPSTVHPGDRTAVIQV		2
capsid vertex-specific component 2 (CVC2; ORF34) (natural protein, UniProt P09287 1-579, looked up) MTARYGFGSISFPNKCGIFLSTTKNFIAPNFPIHYWTAPAFELRGRMNPDLEKNTLTLKNAAAVAALDNLRGETITLPTEIDRRLKPLEEQLTRMAKVLDSLETAAAEAEEADAQSEECTRTEIIRNESIHPEVQIAKNDAPLQYDTNFQVDFITLVYLGRARGNNSPGIVFGPWYRTLQERLVLDRPVAARGVDCKDGRISRTFMNTTVTCLQSAGRMYVGDRAYSAFECAVLCLYLMYRTSNSVHEPQVSSFGNLIEHLPEYTETFVNYMTTHENKNSYQFCYDRLPRDQFHARGGRYDQGALTSHSVMDALIRLQVLPPAPGQFNPGVNDIIDRNHTAYVDKIQQAAAAYLERAQNVFLMEDQTLLRLTIDTITALLLLRRLLWNGNVYGDKLKNNFQLGLIVSEATGTPTNNVILRGATGFDGKFKSGNNNFQFLCERYIAPLYTLNRTTELTEMFPGLVALCLDAHTQLSRGSLGRTVIDISSGQYQDRLISLIALELEHRRQNVTSLPIAAVVSIHDSVMLQYERGLGMLMHQPRVRAALEESRRLAQFNVNSDYDLLYFVCLGVIPQFASTP		2
